Assay results as given in publication PMC2999918.
Several values for one entry are separate records, joined by “and”; a condition that tells them apart may be missing. Identical values can stand only once.

What was measured:
[1] = molecular target: S36A mutant human apolipoprotein A-I, recombinant (human); assay: cross-linking
[2] = molecular target: S36A mutant human apolipoprotein A-I, recombinant (human); assay: AUC
[3] = molecular target: wild-type (WT) human apolipoprotein A-I, recombinant (human) (UniProt P02647); assay: native gel or EMSA
[4] = molecular target: wild-type (WT) human apolipoprotein A-I, recombinant (human) (UniProt P02647); assay: AUC

Row | stoichiometry N [1] | Ka [2] [M⁻¹] | stoichiometry N [2] | stoichiometry N [3] | Ka [4] [M⁻¹] | Substance
1 | 2 | 6.12e+14 | 4 |  |  | S36A mutant human apolipoprotein A-I, recombinant (natural protein)
2 |  |  |  | 2 and 4 | 8.56e+14 | wild-type (WT) human apolipoprotein A-I, recombinant (from UniProt P02647 19-267) (natural protein)
